Target: T1, 인간 TIGIT-His (human, UniProt Q495A1 22-141)
T1 construct: extracellular domain; also called TIGIT-6x His; TIGIT 항원
T1 sequence: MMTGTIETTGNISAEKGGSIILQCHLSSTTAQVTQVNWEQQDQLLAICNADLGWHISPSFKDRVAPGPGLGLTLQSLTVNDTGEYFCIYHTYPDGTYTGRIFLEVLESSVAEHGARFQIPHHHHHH
Experiment: BLI (Octet QK), antibody on AHC biosensor, human TIGIT-His 15 nM ~ 1.88 nM, 1:1 global fit

B1: SA2209 (antibody, V domains shown)
VH: QVQLQESGPGLVKPSGTLSLTCAVSGVSIRQGHWWSWVRQPPGKGLEWIGEIYQTGRTNYNPSLKSRVTISVGKSRNHISLKLSSVTAADTAVYYCTTGSGWYPIDYWGQGTLVTVSS
VL: SYELTQDPAVSVALGQTVRITCQGDSLRGFYASWYQQKPGQAPLLVLYGVKDRPSGIPDRFSGSRSGTTASLTITGAQAEDEADYYCNSRDSNGAMMFGGGTKLTVL
notes: also called 항-TIGIT 항체; anti-TIGIT antibody
Kd: 3.43 nM
koff: 0.00136 s⁻¹
kon: 397000 M⁻¹ s⁻¹
